Measured values published in the supplement of paper PMC9170038.

What was measured:
[1] = test system: MS2 coat protein; assay: apparent KD of MS2 coat protein, switch ON state; designed switch direction (-1 OFF switch, 1 ON switch): -1; higher = weaker reporter binding; settings: FMN input: 0 or 200 uM; Eterna round: R93 (includes R88 designs)
Summary of the method: (§1)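 Binding of SNAP-549-labelled MS2 coat protein was measured on designed RNA switches transcribed on-chip from Illumina sequencing clusters. The protein rose in twofold steps from 0.7 or 1.5 nM to 3 µM, with 0.8–1.5 h per step early on and 10–20 min per step later, in 100 mM Tris-HCl pH 7.5, 80 mM KCl, 4 mM MgCl2, without or with constant ligand. Each design's apparent KD is the median of fits to its normalised cluster binding curves.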

[2] = test system: MS2 coat protein; assay: apparent KD of MS2 coat protein, switch OFF state (with FMN for OFF switches, without FMN for ON switches); designed switch direction (-1 OFF switch, 1 ON switch): -1; higher = weaker reporter binding; settings: FMN input: 0 or 200 uM; Eterna round: R93 (includes R88 designs)
Summary of the method: as §1

Sequence	apparent KD of MS2 coat protein [1] [nM]	apparent KD of MS2 coat protein [2] [nM]
AAACGUAGAGGAUAUACAUAAGUAUUACGAAAGUAAUACAAACAUGAGGAUCACCCAUGUAGAAGGCUACGAAA [MOD2 of Meechl's MS2 Ex2 (MS2 riboswitches - Exlclusion 2)]	24.9	28
AGCUAGUCAGGAUAUACAAAGAUGUCGAAAGACGUCAAGGGACAUGAGGAUCACCCAUGUAGAAGGGACUAGCA [Mod of Janderson's WEB Mod v.3]	56.2	197
AACAGUACAGGAUAUACAUGAGGAUCACCCAUGUGAGACUUAAAAGGCGUACCUAAAAGUAGAAGGGUACUGGA [JL Maslow Revisted mod 21]	56.1	176
AAAAAACAUGAGGAUCACCCAUGUCAGGAUAUCCGGUUCUUAAAAAAAAAGAGGCGUUGGAGAAGGGACAUUCC [Chica Displaced 12 - Jieux - Exclusion 1]	26.7	41.7
AGUCAGAGAGGAUAUACAUGGGAAAAAAAAGUAAGAUCCCUACAUGAGGAUCACCCAUGUAGAAGGCUCUGACA [Ex2 Design 139: Sub-opt 3]	22.6	20.2
AAGCUGGUAGGAUAUACUAGGGCAACUAAUGCACCGAUAGGACAUGAGGAUCACCCAUGUAGAAGGGCCAGAAA [JR_Exc002_Sub404]	65.5	137
AAAACGAUAGGAUAUACAUGAGGAUCACCCAUGUUAAAAUGUAGAAGGCUGAAAAAAAGUAGAAGGAUCAAAAA [EXC - 3]	29.5	34.4
AGCUUCAGAGGAUAUACUUGAGUGAUAAAAGUCUGAUAACUACAUGAGGAUCACCCAUGUAGAAGGCUGUAGCA [Ex2 Design 168: Sub-opt 32]	19.1	46
CCUGUGUGAGGAUAUGGUAUAAAAAAAAAAAAAUAGCUCCUCCAGAAGGCACAUGAGGAUCACCCAUGUCGUGG [Jolly's Folly 17 - Jieux - Exclusion 4]	26.9	57.1
AACAUGUCAGGAUAUGUAGUAAAAAGUGAUCCUCAUAAACUACAGAAGGGACAUGAGGAUCACCCAUGUAAAAA [Ex4: 930]	27.9	21.3
AAGAAGUCAGGAUAUACAUGAAAGAAAGAAAAGAAAAGAAAACAUGAGGAUCACCCAUGUAGAAGGGACAAGAA [EteRNA is fun!]	54.5	50.5
AAGAACGUAGGAUAUACAUGAGGAUCACCCAUGUAAAAGAAAGAAAGGGAAAAGAAAAGUAGAAGGACGAAGAA [Hedjkheperre-setepenre Shoshenq I]	29.7	77.9
AAAAAGUGAGGAUAUUCGGAAGGGAAAGCGCAAACCCAACCGAAGAAGGCACAUGAGGAUCACCCAUGUGGAAG [Mat - Exaclusion 4 - Eli mod - D57]	29.5	30.2
AAAAAGUGAGGAUAUACGCUGUGGAGUAGACACAACCAGGCGUAGAAGGCACAUGAGGAUCACCCAUGUCCAAA [EX4 Malc#18]	23.9	44.1
AAGAACGCAGGAUAUAUUAAGGGACAAAGAAGGAAGAAUAAACAUGAGGAUCACCCAUGUAGAAGGGCGAAGAA [JR_Exclusion2_Sub4]	49.4	43.5
AGUUGGCGAGGAUAUACAUGAGGAUCACCCAUGUAAGAGUAAAGAGUGAGAAAGAGAAGUAGAAGGCGCUGACA [Ruby 57]	53	247
ACCAGACAUGAGGAUCACCCAUGUCAGGAUAUGCAUCUUAGGAAAAAAAAACUAAGAUGCAGAAGGGACAAGGG [Design 5: Super Stable - A-U mutation]	16	20.1
AGUCGGCGAGGAUAUACAUGAGGAUCACCCAUGUGAGAGAAAAAAGUGAGAAAGAAAUGUAGAAGGCGCUGACA [JL Lego Mod 1]	90.8	36.8
AACAUGUCAGGAUAUUAAAGAAAAGAAAAGAAAGAAAAGAAUAAGAAGGGACAUGAGGAUCACCCAUGUAAGAA [EteRNA is fun!]	72.1	37
UACAUACAUGAGGAUCACCCAUGUCAGGAUAUGUGCUCAGUGAAAAACAAAGAAACAAGCAGAAGGGACACUAA [JR_Exc001_Sub203]	41.8	37.5
AACAAACAUGAGGAUCACCCAUGUGAGGAUAUACAAACAAACAAAAACAAAACAAAAAGUAGAAGGCACAACAA [JR_Exc001_Sub002]	19.4	18.9
AAAAACCGAGGAUAUACAUGAGGAUCACCCAUGUAAAAAAAAAAAAAGGGAAAAAAAAGUAGAAGGCGGAAAAA [Djehuti Sekhemresementawy]	26.2	34.8
